From doi:10.1101/2020.06.17.153486

What was measured:
[1] = molecular target: SARS-CoV-2 spike trimer (S trimer), soluble ectodomain (SARS-CoV-2) (UniProt P0DTC2); assay: cryo-EM structure
[2] = molecular target: SARS-CoV-2 spike trimer (S trimer), soluble ectodomain (SARS-CoV-2, Wuhan-Hu-1 type); assay: cryo-EM structure

Row | Substance | stoichiometry N (Fab per trimer) [1] | stoichiometry N (Fab per trimer) [2]
1 | 2-43 Fab | 3 | –
2 | 4-8 Fab | – | 3
